Literature values in article PMC12583094, “A novel antioxidant peptide from black soybean [Glycine max (L.) Merr.] with verified MPO interaction and multi-scale antioxidant activity” (Frontiers in Nutrition, 2025).

Biological target: MPO (Homo sapiens) (UniProt P05164)
Assay: SPR

Sequence of MPO (Homo sapiens) (P05164 165-273, chain 1 of 2): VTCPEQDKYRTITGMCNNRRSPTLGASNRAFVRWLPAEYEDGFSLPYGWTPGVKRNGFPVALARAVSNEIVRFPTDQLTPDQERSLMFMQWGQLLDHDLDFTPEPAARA
Sequence of MPO (Homo sapiens) (P05164 279-745, chain 2 of 2): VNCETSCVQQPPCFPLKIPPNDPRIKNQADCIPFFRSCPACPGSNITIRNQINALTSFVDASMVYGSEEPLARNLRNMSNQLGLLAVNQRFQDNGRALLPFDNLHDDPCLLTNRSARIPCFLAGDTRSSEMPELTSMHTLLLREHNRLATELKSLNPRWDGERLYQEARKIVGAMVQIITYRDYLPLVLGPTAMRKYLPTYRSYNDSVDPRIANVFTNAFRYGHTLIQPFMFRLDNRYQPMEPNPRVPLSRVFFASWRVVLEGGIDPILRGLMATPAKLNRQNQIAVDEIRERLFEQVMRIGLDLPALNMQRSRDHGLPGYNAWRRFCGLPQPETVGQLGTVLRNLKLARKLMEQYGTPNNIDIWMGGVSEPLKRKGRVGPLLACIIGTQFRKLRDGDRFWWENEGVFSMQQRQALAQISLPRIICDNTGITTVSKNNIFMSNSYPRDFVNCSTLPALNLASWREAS

SPIN (from UniProt A0A0H3K703)
Kd: 10 nM
